T1: dtSARM1, the truncated form of SARM1 without the N-terminal mitochondrial signal, fused with a twin-Strep-tag … (human, UniProt Q6SZW1 28-724)
T1 chain: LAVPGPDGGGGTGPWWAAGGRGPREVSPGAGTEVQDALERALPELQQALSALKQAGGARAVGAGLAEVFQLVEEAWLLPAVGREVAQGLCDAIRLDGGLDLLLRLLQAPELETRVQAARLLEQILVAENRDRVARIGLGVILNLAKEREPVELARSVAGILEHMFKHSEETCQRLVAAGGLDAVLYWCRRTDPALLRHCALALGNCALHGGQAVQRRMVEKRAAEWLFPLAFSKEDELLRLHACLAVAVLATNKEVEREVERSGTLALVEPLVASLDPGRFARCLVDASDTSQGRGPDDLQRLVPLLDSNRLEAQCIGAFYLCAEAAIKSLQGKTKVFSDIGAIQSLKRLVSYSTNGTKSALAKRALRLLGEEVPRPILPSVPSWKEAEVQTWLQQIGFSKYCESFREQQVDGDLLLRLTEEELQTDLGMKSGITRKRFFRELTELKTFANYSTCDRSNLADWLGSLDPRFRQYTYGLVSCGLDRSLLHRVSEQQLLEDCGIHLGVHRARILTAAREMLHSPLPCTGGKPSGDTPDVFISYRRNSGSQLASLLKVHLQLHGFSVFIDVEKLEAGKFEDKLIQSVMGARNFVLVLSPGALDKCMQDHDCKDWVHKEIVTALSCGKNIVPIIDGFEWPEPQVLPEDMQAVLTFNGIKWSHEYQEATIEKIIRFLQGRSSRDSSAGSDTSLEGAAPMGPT

B1: Nanobody C6 (VHH)
VHH: AVQLVESGGGLVQPGGSLRLSCAASVSISRIYVMAWYRQAPGKQREVVAVIRYDGTTNYPDSVKGRFTISRDNAKNTVYLQMNSLKPEDTAVYYCNANVETWGQGTQVTVSS
notes: Subcloned into pET22b; alpaca nanobody from an immune phage display library; also called Nb-C6; source: E. coli C43(DE3), purified (Ni-Excel resin, HiTrap Q)
B2: dtSARM1, the truncated form of SARM1 without the N-terminal mitochondrial signal, fused with a twin-Strep-tag and a Flag-tag attached to the N-terminus (enzyme, human, UniProt Q6SZW1 28-724, looked up)
chain: T1 chain
notes: also called recombinant SARM1; SARM1^NMN (loaded with NMN); source: Expi293F stably expressing dtSARM1 (lentiviral); in lysate, or purified (StrepTactin resin, Superdex 200 gel filtration); not shown: twin-Strep, N-terminal, kept; Flag, N-terminal, kept

Experiments:
[1] = target: T1, dtSARM1, the truncated form of SARM1 …; assay: SPR; 100 uM NMN, two-state fit kd1
[2] = target: T1, dtSARM1, the truncated form of SARM1 …; assay: SPR; 100 uM NMN, two-state fit kd2
[3] = target: T2, dtSARM1, the truncated form of SARM1 without the N-terminal mitochondrial signal, fused with a twin-Strep-tag … (human, UniProt Q6SZW1); assay: cryo-EM structure; 3 mg/mL dtSARM1 with 100 uM NMN in 100 mM Tris pH 8.0, 150 mM NaCl, 1 mM EDTA on ice for 10 min, then Nb-C6 at 1:1 molar ratio, 30 min on ice; conditions: both partners purified
T2 construct: also called recombinant SARM1; SARM1^NMN (loaded with NMN); source: Expi293F stably expressing dtSARM1 (lentiviral); in lysate, or purified (StrepTactin resin, Superdex 200 gel filtration); not shown: twin-Strep, N-terminal, kept; Flag, N-terminal, kept

Nanobody C6 (alpaca) = assay: as above
[4] = target: T2, dtSARM1, the truncated form of SARM1 …; assay: SPR; BIAcore 8K; dtSARM1 captured (about 500 RU) on a CM5 chip coated with Strep-Tactin XT; Nb-C6 1.56-400 nM in NMN/HBS-EP (100 uM NMN, 10 mM HEPES, 150 mM NaCl, 1 mg/mL BSA, 3 mM EDTA, 0.05% P20); 360 s association, 540 s dissociation; two-state kinetics model; conditions: both partners purified
[5] = target: the molecule itself; assay: cryo-EM structure; 3 mg/mL dtSARM1 with 100 uM NMN in 100 mM Tris pH 8.0, 150 mM NaCl, 1 mM EDTA on ice for 10 min, then Nb-C6 at 1:1 molar ratio, 30 min on ice

Binder	koff [1] [s⁻¹]	koff [2] [s⁻¹]	stoichiometry N [3]	stoichiometry N (Nanobody C6 (alpaca))	Kd [4] [nM]	stoichiometry N [5]
B1	0.0209	0.000601	1	2	~25	–
B2	–	–	–	–	–	8

Source: PMC9780360, “A conformation-specific nanobody targeting the nicotinamide mononucleotide-activated state of SARM1” (Nature Communications, 2022)
